This passage reports microscopic (residue-specific) KD, V116 results from publication PMC12314576, “The Actin‐Binding Prolyl‐Isomerase Par17 Sustains Its Substrate Selectivity by Interdomain Allostery” (Proteins, 2025).

Starred links: 1 amine or outer side, 2 acyl side, 3 side chain; linkers in the order of their positions; H or OH if unused. *: point of attachment. pNA = O=[N+]([O-])c1ccc(N*)cc1; Suc = O=C(CCC(=O)[*:2])[*:1]

This assay has as its target Parvulin 17 (human) (UniProt Q9Y237). The assay can be described thus: NMR titration; substrate peptides added stepwise to 15N-labelled parvulin (300 μM, up to 3 mM peptide, 1:10); BEST-TROSY-HSQC at 20°C, 50 mM KPi buffer pH 6.7; microscopic (residue-specific) KD fitted with a 1:1 binding model.

Parvulin 17 (human), sequence (Q9Y237 other isoform, or with tags, fused parts or gaps): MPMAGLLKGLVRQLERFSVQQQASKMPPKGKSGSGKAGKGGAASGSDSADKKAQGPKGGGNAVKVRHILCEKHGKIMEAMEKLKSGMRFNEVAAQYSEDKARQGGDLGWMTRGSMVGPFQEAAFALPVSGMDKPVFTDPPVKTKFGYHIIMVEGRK

B1: Suc-Ala-Arg-Pro-Phe-pNA (peptide)
peptide: Suc-ARPF-pNA
SMILES: C[C@H](NC(=O)CCC(=O)O)C(=O)N[C@@H](CCCNC(=N)N)C(=O)N1CCC[C@H]1C(=O)N[C@@H](Cc1ccccc1)C(=O)Nc1ccc([N+](=O)[O-])cc1
B1 displayed a microscopic (residue-specific) KD, V116 of 17 mM.

B2: Suc-Ala-Lys-Pro-Phe-pNA (peptide)
peptide: Suc-AKPF-pNA
SMILES: C[C@H](NC(=O)CCC(=O)O)C(=O)N[C@@H](CCCCN)C(=O)N1CCC[C@H]1C(=O)N[C@@H](Cc1ccccc1)C(=O)Nc1ccc([N+](=O)[O-])cc1
The molecule B2 registered a microscopic (residue-specific) KD, V116 of 24 mM.
